Patent US20220040304A1, “A COMPOSITION FOR CANCER CELL DEATH AND ITS USE” (Industry-University Cooperation Foundation Hanyang …, priority 2018, published 2022)

B1: RLuc8.6-KR-LP: fusion protein of RLuc8.6, KillerRed and lead peptide WLEAAYQRFL, 71 kDa (protein)
chain: MRGSHHHHHHGMASMTGGQQMGRDLYDDDDKDPMASKVYDPEQRKRMITGPQWWARCKQMNVLDSFINYYDSEKHAENAVIFLHGNATSSYLWRHVVPHIEPVARCIIPDLIGMGKSGKSGNGSYRLLDHYKYLTAWFELLNLPKKIIFVGHDWGSALAFHYAYEHQDRIKAIVHMESVVDVIESWMGWPDIEEELALIKSEEGEKMVLENNFFVETLLPSKIMRKLEPEEFAAYLEPFKEKGEVRRPTLSWPREIPLVKGGKPDVVQIVRNYNAYLRASDDLPKLFIESDPGFFYNAIVEGAKKFPNTEFVKVKGLHFLQEDAPDEMGKYIKSFVERVLKNEQEFGGGMLCCMRRTKQVEKNDEDQKISEGGPALFQSDMTFKIFIDGEVNGQKFTIVADGSSKFPHGDFNVHAVCETGKLPMSWKPICHLIQYGEPFFARYPDGISHFAQECFPEGLSIDRTVRFENDGTMTSHHTYELDDTCVVSRITVNCDGFQPDGPIMRDQLVDILPNETHMFPHGPNAVRQLAFIGFTTADGGLMMGHFDSKMTFNGSRAIEIPGPHFVTIITKQMRDTSDKRDHVCQREVAYAHSVPRITSAIGSDEDGGGWLEAAYQRFL
modifications: pRSET-RLuc8.6-KillerRed-Lead peptide
B2: RLuc8.6-KR: fusion protein of RLuc8.6 and KillerRed without lead peptide, 69 kDa (protein)
chain: MRGSHHHHHHGMASMTGGQQMGRDLYDDDDKDPMASKVYDPEQRKRMITGPQWWARCKQMNVLDSFINYYDSEKHAENAVIFLHGNATSSYLWRHVVPHIEPVARCIIPDLIGMGKSGKSGNGSYRLLDHYKYLTAWFELLNLPKKIIFVGHDWGSALAFHYAYEHQDRIKAIVHMESVVDVIESWMGWPDIEEELALIKSEEGEKMVLENNFFVETLLPSKIMRKLEPEEFAAYLEPFKEKGEVRRPTLSWPREIPLVKGGKPDVVQIVRNYNAYLRASDDLPKLFIESDPGFFYNAIVEGAKKFPNTEFVKVKGLHFLQEDAPDEMGKYIKSFVERVLKNEQEFGGGMLCCMRRTKQVEKNDEDQKISEGGPALFQSDMTFKIFIDGEVNGQKFTIVADGSSKFPHGDFNVHAVCETGKLPMSWKPICHLIQYGEPFFARYPDGISHFAQECFPEGLSIDRTVRFENDGTMTSHHTYELDDTCVVSRITVNCDGFQPDGPIMRDQLVDILPNETHMFPHGPNAVRQLAFIGFTTADGGLMMGHFDSKMTFNGSRAIEIPGPHFVTIITKQMRDTSDKRDHVCQREVAYAHSVPRITSAIGSDED
modifications: pRSET-RLuc8.6-KillerRed

Assays:
Type in all cases: cell-based, human
[1] = tested on: MCF-7 cells; test: Flow cytometric analysis of KR, SYTOX Green and DAPI
Description: MCF-7 cells were seeded at 5×10^5 cells/mL in a 96-well plate (SPL Cell Culture Plate, 96 well (SPL, Cat #30096)), and cultured at 37° C. for 24 hours (overnight). After the culture, the cells were washed with FBS & Phenol red-free media (RPMI), and 100 μL of FBS & Phenol red-free media (RPMI) containing a purified protein (final concentration: 10 μM), followed by reaction at 37° C. for 24 hours (overnight).
After washing with KillerRed: FBS & Phenol red-free media (RPMI), the cells were detached by treating 100 μL of Trypsin EDTA (Gibco™), and then centrifuged at 1,000 rpm for 3 minutes. The cells were filtered through a cell strainer (SPL, cat #93070) and resuspended in 400 μL of 1×DPBS containing 5% FBS.
The cells were washed with SYTOX Green: FBS & Phenol red-free media (RPMI), and 100 μL (final concentration: 150 μM) of FBS & Phenol red-free media (RPMI) containing a Co-h substrate solution was added, followed by incubation for 24 hours at 37° C. 50 μL of SYTOX Green (final concentration: 261 nM) staining DNA of dead cells was added without washing the cells, followed by reaction at 37° C. for 30 minutes. Without washing, the cells were detached by treatment with 100 μL of trypsin EDTA (Gibco™), and centrifuged at 1,000 rpm for 3 minutes. The cells were filtered through a cell strainer (SPL, cat #93070) and resuspended in 400 μL of 1×DPBS containing 5% FBS.
The cells were washed with DAPI: FBS & Phenol red-free media (RPMI), and 100 μL (final concentration: 150 μM) of FBS & Phenol red-free media (RPMI) containing a Co-h substrate solution was added, followed by incubation for 24 hours at 37° C. The cells were washed with FBS & Phenol red-free media (RPMI), and then 100 μL of media (RPMI) was added thereto. 10 μL of DAPI staining DNA of live cells was added, followed by reaction at 37° C. for 30 minutes. The cells were detached by treatment with 100 μL of trypsin EDTA (Gibco™) without washing, followed by centrifugation at 1,000 rpm for 3 minutes. The cells were filtered through a cell strainer (SPL, cat #93070) and resuspended in 400 μL of 1×DPBS containing 5% FBS.

[2] = tested on: MCF-7; test: Cell death with Co-h substrate by cell type (SYTOX Green or EthD-1/DAPI); conditions: MCF-7, protein 10 μM, Co-h 150 μM for 5 minutes
Description: (§1) The cells were seeded at 5×10^5 cells/mL in 96-well plates (SPL Cell Culture Plate, 96 well (SPL, Cat #30096)), and cultured at 37° C. for 24 hours (overnight). After the culture for 24 hours, the cells were washed with FBS & phenol red-free media, and 100 μL of FBS & phenol red-free media containing a purified protein (final concentration: 10 μM) was added, followed by reaction at 37° C. for 24 hours.
(§2) Subsequently, the cells were washed with FBS & phenol red-free media, and 100 μL of FBS & phenol red-free media was added. 100 μL of FBS & Phenol red-free media (RPMI) containing a Co-h substrate solution (final concentration: 150 μM) was added, followed by reaction at 37° C. for 5 minutes.
(§3) After the reaction, 50 μL of SYTOX Green (final concentration: 261 nM) or 90 μL of ethidium homodimer (EthD-1) (final concentration 1×), which stains DNA of dead cells, was added, followed by reaction at 37° C. for 30 minutes. 10 μL of DAPI staining DNA of live cells was added, followed by reaction for 5 minutes. Cell death was confirmed by observing KillerRed, SYTOX Green, MiniSOG, EthD-1 and DAPI fluorescence using a confocal microscope.

[3] = tested on: MDA-MB-231; test: as above; conditions: MDA-MB-231, protein 10 μM, Co-h 150 μM for 5 minutes
Description: as §1, §2, §3

[4] = tested on: MDA-MB-435; test: as above; conditions: MDA-MB-435, protein 10 μM, Co-h 150 μM for 5 minutes
Description: as §1, §2, §3

[5] = MCF-7, protein 10 μM, Co-h 150 μM 24 hours

| Molecule | number of cells exhibiting fluorescence of KillerRed (FACS) ([1]; MCF-7, protein 10 μM 24 hours) | number of cells exhibiting SYTOX Green (FACS) [1, 5] | number of cells stained with DAPI (FACS) [1, 5] | cell death with Co-h substrate [2] | cell death with Co-h substrate [3] | cell death with Co-h substrate [4] |
| --- | --- | --- | --- | --- | --- | --- |
| B1 | increased | increased | decreased | killed them | killed them | killed them |
| B2 |  |  | increases without a cytotoxic effect | none of the six breast cancer cell lines were killed | none of the six breast cancer cell lines were killed | none of the six breast cancer cell lines were killed |
